This is an account of results in article PMC6335408.

The target of test [1] is GST-Ubl45 (immobilised) (UniProt Q93009). Nature of the test: SPR; GST-Ubl45 or GST-Ubl45ΔC captured by anti-GST antibody on CM5 chip, covalent CDUb flowed over; Biacore T200, 25 °C; same running buffer; equilibrium fit and EvilFit.
Test [2] addresses USP7 C-terminal tail peptide (residues 1083-1102), biotinylated (UniProt Q93009). Nature of the test: SPR; N-terminally biotinylated C-terminal tail peptide immobilised (~30 RU) on SA chip, CD or CDUb flowed over; Biacore T200, 25 °C; same running buffer.
The target of test [3] is GST-Ubl45 (immobilised) (UniProt Q93009). Nature of the test: SPR; around 50 units of Ubl45 immobilised, titration range of p53Ub-bound TCD flowed over; equilibrium fit.
Test [4] addresses USP7 catalytic domain CD (Homo sapiens) (UniProt Q93009). The test is described as follows: activation assay. The note with it: cited from earlier work.
For test [5], the target named is USP7 CD45 (catalytic domain linked to Ubl45). Nature of the test: SEC-MALS; Superdex 200 in 20 mM HEPES pH 7.5, 100 mM NaCl, 1 mM DTT, in-line MALLS; CD45 100 µL of 45 µM, FL 80 µL of 20 µM loaded.
Another test has as its target USP7 CD12345^ΔC (UniProt Q93009).
Test [6] addresses USP7 catalytic domain (CD).
Test [7] concerns the target TAMRA-labelled p53 peptide (UniProt P04637). The test is described as follows: fluorescence polarisation; 25 nM TAMRA-p53 peptide with a dilution series of USP7 constructs; plate reader; 20 mM HEPES pH 7.5, 100 mM NaCl, 1 mM DTT, 1 mM EDTA, 0.05% Tween-20.
Test [8] concerns the target USP7-TCD (TRAF domain and catalytic domain, lacks all Ubl domains). Nature of the test: covalent suicide-probe reaction (preparative); 120 µM CD (or TCD) incubated overnight with an excess of probe and Ubl45 (both 150 µM) under dialysis against 20 mM HEPES pH 7.5, 50 mM NaCl, 2 mM DTT.
Test [9] has as its target USP7 CD12345 (catalytic domain with Ubl domains 1-5 and tail, no TRAF domain) (UniProt Q93009).
The target in test [10] is USP7-TCD (TRAF domain and catalytic domain, lacks all Ubl domains).
For a further test, the target named is full-length (FL) USP7 (UniProt Q93009).
For test [11], the target named is USP7 catalytic domain (CD). Nature of the test: covalent suicide-probe reaction (preparative); 120 µM CD (or TCD) incubated overnight with an excess of probe and Ubl45 (both 150 µM) under dialysis against 20 mM HEPES pH 7.5, 50 mM NaCl, 2 mM DTT.

For “CDUb (USP7 catalytic domain covalently coupled to ubiquitin through Ub-PA) (from UniProt P0CG48 1-76) (complex)”, in the test with GST-Ubl45 (immobilised) [1], the dissociation constant Kd worked out at 0.59 µM and the off-rate constant (koff) was determined as 0.8 s⁻¹. For the same substance, the Kd in test [2] was 2.6 µM.

“TCD-p53Ub (USP7-TCD covalently bound to the p53UbVA probe) (from UniProt P04637 357-389; P0CG48 1-76) (complex)” showed a Kd in the test with GST-Ubl45 (immobilised) [3] of 2.9 µM.

For “USP7 C-terminal peptide C-terminal tail (from UniProt Q93009)”, the Kd in test [4] is 1000 µM.

Take “USP7 CD45 (catalytic domain linked to Ubl45) (domain or fragment)”: the stoichiometry N in [5] was determined as 2.

As to “USP7 CD12345^C223A (from UniProt Q93009 1-1102) (domain or fragment)”, the apparent KD (K (D,app)) from activation of CD12345^ΔC (20 nM) DUB activity on UbRho, titration of CD12345^C223A in the test with USP7 CD12345^ΔC is 60 µM.

As to “USP7 Ubl45 (last two Ubl domains with the activating C-terminal tail) (from UniProt Q93009 890-1102) (domain or fragment)”, the apparent KD from in trans activation of CD (20 nM) DUB activity on UbRho, titration of Ubl45 in [6] was determined as 110 µM.

Substance “full-length (FL) USP7 (from UniProt Q93009 1-1102) (enzyme)” registered an equilibrium dissociation constant (Kd) in test [7] of 0.16 µM.

Regarding “p53UbVA (covalently binding, vinylamide-linked ubiquitinated p53 peptide, res. 357-389) (from UniProt P04637 357-389; P0CG48 1-76)”, the percent reacted with the probe in [8] amounted to 100%.

As to “p53Ubinh (non-hydrolysable, triazole-linked ubiquitinated p53 peptide) (from UniProt P04637 357-389; P0CG48 1-76)”, the IC50 of inhibition of UbRho hydrolysis by p53Ubinh (CD12345 0.35 nM): fold by which the IC50 of FL is better than that of CD12345 in test [9] stood at 60 fold. This substance displayed an IC50 of inhibition of UbRho hydrolysis by p53Ubinh (TCD 200 nM): fold by which the IC50 of FL is better than that of TCD in test [10] of 60 fold. The substance further yielded an IC50 of inhibition of UbRho hydrolysis by p53Ubinh (FL 0.35 nM, UbRho 0.4 µM) with full-length (FL) USP7 of 0.016 µM.

Turning to “ubiquitin-propargyl (Ub-PA) suicide probe (from UniProt P0CG48 1-76)”, in [11], the percent of CD reacted with the probe came to 80%.
